Laboratory results from FireProtDB (doi:10.1002/pro.3128).

Conditions: Homo sapiens, pH 7.3, 25 °C, Sodium citrate 5mM, KF 50mM, transition: 2, reversible: no, whole UniProt chain shown

B1: Pleckstrin homology domain-containing family F member 2 wild type, Q9H8W4 (protein)
chain: MVDRLANSEANTRRISIVENCFGAAGQPLTIPGRVLIGEGVLTKLCRKKPKARQFFLFNDILVYGNIVIQKKKYNKQHIIPLENVTIDSIKDEGDLRNGWLIKTPTKSFAVYAATATEKSEWMNHINKCVTDLLSKSGKTPSNEHAAVWVPDSEATVCMRCQKAKFTPVNRRHHCRKCGFVVCGPCSEKRFLLPSQSSKPVRICDFCYDLLSAGDMATCQPARSDSYSQSLKSPLNDMSDDDDDDDSSD
In the case of B1, the denaturant m value (GdnHCl, CD) is reported as 2.48 kcal/mol/M, the “denaturant midpoint (higher = more stable)” value (“denaturant midpoint” below) (GdnHCl, CD) is reported as 1.51 M and the unfolding free energy (GdnHCl, CD) is reported as 3.75 kcal/mol. For the same protein, the denaturant m value (GdnHCl, Fluorescence) was 2.93 kcal/mol/M, the “denaturant midpoint” value (GdnHCl, Fluorescence) was 1.3 M and the unfolding free energy (GdnHCl, Fluorescence) was 3.8 kcal/mol. The denaturant m value (Urea, CD) was 1.16 kcal/mol/M, the “denaturant midpoint” value (Urea, CD) was 3.45 M and the unfolding free energy (Urea, CD) was 4 kcal/mol. For the same protein, the denaturant m value (Urea, Fluorescence) was 1.19 kcal/mol/M, the “denaturant midpoint” value (Urea, Fluorescence) was 3.42 M and the unfolding free energy (Urea, Fluorescence) was 4.07 kcal/mol.
